Experimental data taken from IntAct's records for PubMed 23559066.

B1: Autophagy-related protein 36 (Saccharomyces cerevisiae), P46983 (parent)
chain: MASVNNYQVDCGSRSARIQPRINNGIHDEESLFEVLELSEEEFELDFHRLKSFNDVRVINNPDLSPECTNTAISRDETLESASSAFEVPSDEIAILSISSDSNKNSPPSEQPAPALRNIRSSSNSDRIDEWCLGSHLFNELHQNVPQSSDGVNHGFPVYSFKERELYTSAKLKKLTNAQRIAVQKLSRDLYPILRTCYREKTRRQLLTYHHERIFDDIPSFFPQRDFIFNYYSMPLEFDRLSDVDIDSSSRSRFTDESTGETLNRSPSAASSSLENTSWFGWTLLSRFLDREW
partner: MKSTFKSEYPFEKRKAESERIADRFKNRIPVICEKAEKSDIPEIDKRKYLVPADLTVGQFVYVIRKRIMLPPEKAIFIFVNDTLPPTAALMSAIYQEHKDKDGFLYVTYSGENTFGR
B2: Autophagy-related protein 36 (Saccharomyces cerevisiae), P46983 (parent)
chain: B1 chain
partner: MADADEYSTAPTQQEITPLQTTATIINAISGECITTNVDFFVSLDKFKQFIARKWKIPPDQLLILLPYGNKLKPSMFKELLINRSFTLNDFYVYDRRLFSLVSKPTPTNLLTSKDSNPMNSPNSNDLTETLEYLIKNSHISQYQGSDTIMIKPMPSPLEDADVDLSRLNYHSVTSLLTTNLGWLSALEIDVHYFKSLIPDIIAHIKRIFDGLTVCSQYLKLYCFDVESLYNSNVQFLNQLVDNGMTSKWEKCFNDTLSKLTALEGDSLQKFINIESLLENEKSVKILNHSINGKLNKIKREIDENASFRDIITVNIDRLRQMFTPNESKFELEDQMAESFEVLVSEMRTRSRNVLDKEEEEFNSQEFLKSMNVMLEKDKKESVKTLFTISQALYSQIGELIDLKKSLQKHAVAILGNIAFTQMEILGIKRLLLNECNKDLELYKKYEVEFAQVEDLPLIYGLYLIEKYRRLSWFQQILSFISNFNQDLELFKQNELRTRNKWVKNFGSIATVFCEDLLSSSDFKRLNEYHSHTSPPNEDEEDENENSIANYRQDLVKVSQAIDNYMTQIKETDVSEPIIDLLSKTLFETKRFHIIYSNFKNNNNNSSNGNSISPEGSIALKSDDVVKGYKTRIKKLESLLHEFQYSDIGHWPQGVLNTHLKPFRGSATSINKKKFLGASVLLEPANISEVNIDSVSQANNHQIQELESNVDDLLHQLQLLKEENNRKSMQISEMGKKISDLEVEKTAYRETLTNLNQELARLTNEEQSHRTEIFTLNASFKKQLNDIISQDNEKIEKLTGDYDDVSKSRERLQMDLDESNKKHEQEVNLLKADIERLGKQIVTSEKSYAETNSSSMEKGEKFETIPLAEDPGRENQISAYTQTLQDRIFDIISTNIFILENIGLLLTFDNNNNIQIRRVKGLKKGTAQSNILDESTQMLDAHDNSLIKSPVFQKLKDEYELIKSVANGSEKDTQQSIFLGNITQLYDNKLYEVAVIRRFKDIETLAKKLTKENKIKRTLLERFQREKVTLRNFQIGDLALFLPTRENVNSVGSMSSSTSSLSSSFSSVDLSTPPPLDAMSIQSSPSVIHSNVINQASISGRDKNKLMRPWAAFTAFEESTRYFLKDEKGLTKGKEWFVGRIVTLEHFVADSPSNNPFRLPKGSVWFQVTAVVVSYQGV
B3: Autophagy-related protein 32 (Saccharomyces cerevisiae), P40458 (parent)
chain: MVLEYQQREGKGSSSKSMPPDSSSTTIHTCSEAQTGEDKGLLDPHLSVLELLSKTGHSPSPMGQNLVTSIDISGNHNVNDSISGSWQAIQPLDLGASFIPERCSSQTTNGSILSSSDTSEEEQELLQAPAADIINIIKQGQEGANVVSPSHPFKQLQKIISLPLPGKEKTPFNEQDDDGDEDEAFEEDSVTITKSLTSSTNSFVMPKLSLTQKNPVFRLLILGRTGSSFYQSIPKEYQSLFELPKYHDSATFPQYTGIVIIFQELREMVSLLNRIVQYSQGKPVIPICQPGQVIQVKNVLKSFLRNKLVKLLFPPVVVTNKRDLKKMFQRLQDLSLEYGEDVNEEDNDDEAIHTKSRSYCRNKKAENSKKKSPKSNKKPKRKKQKFFTSWFTWGISITIGISFGCCVTYFVTAAYEHQTVKSLSLRPSILASLLSLDSSSDTINTPATASPSSTEQFLWFDKGTLQINFHSDGFIMKSLTIIKETWGKMNTFVLHALSKPLKFLENLNKSSEFSIDESNRILALGYILL
partner: B2 partner
B4: Autophagy-related protein 32 (Saccharomyces cerevisiae), P40458 (parent)
chain: B3 chain
partner: B1 partner

Variants of: B1
Conditions: with atg8_yeast ATG8, P38182

effect of a mutation on the interaction	Variant
disrupting interaction	F33A;L36A

Variants of: B1
Conditions: with atg8_yeast ATG8, P38182
Remark: another data set of the same source

effect of a mutation on the interaction	Variant
disrupting interaction	S31A

Variants of: B2
Conditions: with atg11_yeast ATG11, Q12527

effect of a mutation on the interaction	Variant
disrupting interaction	S97A

Variants of: B3
Conditions: with atg11_yeast ATG11, Q12527

effect of a mutation on the interaction	Variant
disrupting interaction	S114A;S119A

Variants of: B4
Conditions: with atg8_yeast ATG8, P38182

effect of a mutation on the interaction	Variant
disrupting interaction	S81A;S83A;S85A
